Test results as given in patent publication US20080181903A1, “CONJUGATE OF NATRIURETIC PEPTIDE AND ANTIBODY CONSTANT REGION” (PDL BioPharma, Inc., priority 2006, published 2008).
Values belong to the molecule of their own block, whether it stands above or below them.

Legend:
[1] = molecular target: NPR-A-Fc receptor fusion protein (human); experiment: BIAcore surface plasmon resonance; NPR-A-Fc captured by immobilized goat anti-human Fc gamma antibody, analyte injected; 1:1 Langmuir fit
[2] = molecular target: NPR-A-Fc receptor fusion protein (human); experiment: SPR (BIAcore), NPR-A-Fc captured by anti-human Fc, analyte injected, 1:1 Langmuir fit
[3] = molecular target: NPR-A receptor expressed on transfected cells; experiment: cell-based or functional assay
[4] = molecular target: NPR-A-Fc receptor fusion protein (human); experiment: SPR (BIAcore), NPR-A-Fc captured by anti-human Fc, analyte injected, 1:1 Langmuir fit; experiment with Uro-Fc
[5] = molecular target: NPR-A-Fc receptor fusion protein (human); experiment: SPR (BIAcore), NPR-A-Fc captured by anti-human Fc, analyte injected, 1:1 Langmuir fit; experiment with Fc-Uro
[6] = molecular target: T1, purified NPR-A-Fc fusion protein (extracellular domain of the receptor NPR-A) (Homo sapiens, UniProt P16066); experiment: BIAcore natriuretic peptide receptor (NPR) binding assay; conditions: Fc-Uro vs ularitide comparison (FIG. 2B), n=6, read-out: Binding affinities (KD) on the NPR-A receptor
T1 construct: Expression construct encoding for the extracellular domain of the receptor NPR-A fused to the DNA encoding for the Fc domain of human immunoglobulin; made in house
T1 sequence (P16066 33-473 limits assumed): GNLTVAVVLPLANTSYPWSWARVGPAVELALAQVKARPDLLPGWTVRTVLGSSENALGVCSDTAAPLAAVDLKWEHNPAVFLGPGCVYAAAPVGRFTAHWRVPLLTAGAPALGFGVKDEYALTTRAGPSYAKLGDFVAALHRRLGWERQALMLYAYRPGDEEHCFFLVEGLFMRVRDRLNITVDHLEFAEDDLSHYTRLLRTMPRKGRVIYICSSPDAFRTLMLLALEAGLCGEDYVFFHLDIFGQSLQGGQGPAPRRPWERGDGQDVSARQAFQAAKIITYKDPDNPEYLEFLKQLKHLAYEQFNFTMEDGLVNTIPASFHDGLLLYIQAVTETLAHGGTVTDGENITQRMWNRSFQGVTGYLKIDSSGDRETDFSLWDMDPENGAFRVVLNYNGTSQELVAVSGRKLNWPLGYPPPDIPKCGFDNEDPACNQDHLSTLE
Method: Kinetics measurements for analytes resulting in estimates of binding affinity constants (KD) were performed using BIAcore 2000 & 3000 instruments and methods recommended by the manufacturer (BIAcore, Sweden). […] Purified NPR-A-Fc receptor fusion proteins were captured by goat anti-human Fcγ (GAHFc) antibodies (Jackson ImmunoResearch, Cat 109-005-098) immobilized onto the sensorchip surface. The unoccupied GAHFc after the capture was shielded from analytes by the injection of human Fc (huFc, Jackson ImmunoResearch, Cat 009-000-008). Analytes were injected to obtain an association phase followed by injection of HBS-P running buffer (10 mM HEPES, 150 mM sodium chloride, 0.005% P-20 surfactant, pH 7.4) to monitor dissociation for each binding cycle.
The binding kinetics of each analyte-receptor pair was calculated from a global analysis of sensorgram data collected from different analyte concentrations using the BIAevaluate program (BIAcore, Sweden). The affinity (KD) resulting from association (ka) and dissociation (kd) of each analyte against each receptor was obtained by simultaneously fitting the association and dissociation phases of the sensorgram from the analyte concentration series using the same 1:1 Langmuir model from the BIAevaluate software (BIAcore, Sweden).

NPR-A receptor = molecular target: T2, NPR-A receptor (Homo sapiens, UniProt P16066); experiment: NPR-A receptor activation, intracellular cGMP in transfected cells; assay type: cell-based; conditions: cells expressing NPR-A; Fc-Uro vs ularitide (FIG. 3B); read-out: EC50 of cGMP induction
T2 construct: expressed in transfected cells; host or cells: mammalian tissue culture cells (e.g., 3T12 cells)
T2 sequence (P16066 33-1061): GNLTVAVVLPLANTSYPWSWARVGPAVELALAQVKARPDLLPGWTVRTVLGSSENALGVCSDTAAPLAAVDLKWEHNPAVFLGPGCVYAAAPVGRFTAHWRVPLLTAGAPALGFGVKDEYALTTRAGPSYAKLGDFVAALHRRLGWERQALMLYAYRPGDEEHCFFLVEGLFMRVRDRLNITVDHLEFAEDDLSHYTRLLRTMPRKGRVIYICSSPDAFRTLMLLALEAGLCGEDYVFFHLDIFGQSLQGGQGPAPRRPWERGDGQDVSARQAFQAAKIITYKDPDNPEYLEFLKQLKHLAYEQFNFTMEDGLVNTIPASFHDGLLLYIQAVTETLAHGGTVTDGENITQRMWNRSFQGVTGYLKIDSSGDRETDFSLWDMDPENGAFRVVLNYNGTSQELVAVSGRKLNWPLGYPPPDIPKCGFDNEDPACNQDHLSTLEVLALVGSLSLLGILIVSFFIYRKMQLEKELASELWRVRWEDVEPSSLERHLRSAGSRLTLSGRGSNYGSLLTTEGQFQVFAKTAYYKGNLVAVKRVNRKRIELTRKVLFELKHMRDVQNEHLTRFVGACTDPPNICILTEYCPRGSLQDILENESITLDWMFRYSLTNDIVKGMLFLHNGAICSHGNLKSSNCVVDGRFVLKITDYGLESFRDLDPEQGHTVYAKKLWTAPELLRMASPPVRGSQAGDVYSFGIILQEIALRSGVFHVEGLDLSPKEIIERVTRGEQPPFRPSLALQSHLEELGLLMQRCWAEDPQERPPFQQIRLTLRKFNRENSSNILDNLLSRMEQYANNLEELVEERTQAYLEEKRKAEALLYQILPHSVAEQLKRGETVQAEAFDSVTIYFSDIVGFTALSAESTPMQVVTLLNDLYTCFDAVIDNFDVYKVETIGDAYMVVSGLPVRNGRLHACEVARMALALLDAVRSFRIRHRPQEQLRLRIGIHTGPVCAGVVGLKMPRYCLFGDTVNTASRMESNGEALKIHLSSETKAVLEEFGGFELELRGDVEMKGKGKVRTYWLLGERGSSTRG
Method: NPR-A receptor activation by test compounds was determined by incubation with mammalian cells transfected with expression vector DNA encoding for the NPR-A receptor and measuring the amount of cGMP generated in these cells.
Mammalian tissue culture cells (e.g., 3T12 cells) transfected with expression vector DNA encoding for the NPR-A were cultured in 96-well microtiter plates for 18-20 hours (˜50,000 cells/well) using standard tissue culture conditions. The tissue culture medium was then changed to serum-free medium, cells were pre-incubated with 1 mM IBMX for 30 minutes and treated with various concentrations of test compounds for 10 minutes. Cells were then lysed with 0.2 ml/well of 0.1 M HCl for 20 min, and lysates centrifuged at 1000×g for 2 min. The cGMP in the supernatants was determined using a commercial kit (Direct cGMP EIA Kit, Assay Designs, Inc., Cat#901-014) according to the manufacturer's instructions.

- Kd [1]: 7 pM
- Kd [2]: 7 µM
- intracellular cGMP levels, EC50 [3]: 26.3 nM
Molecule: Uro-Fc(huFcG1(m1)) fusion protein (Fc fusion)

- Kd [1]: 3.1 pM
- Kd [4]: 3.1 µM
- Kd [5]: 4.2 pM
Molecule: ularitide (peptide)

- Kd [2]: 0.00035 µM
- intracellular cGMP levels, EC50 [3]: 86 nM
Molecule: Fc-Uro(huFcG1(m1)) fusion protein (from UniProt P01857 104-330) (Fc fusion)

- Kd [6]: 0.35 ± 0.1 nM
- EC50 (NPR-A receptor): 86 nM
B1: Fc-Uro(huFcG1(m1)): fusion protein: Fc portion of variant human immunoglobulin heavy constant gamma 1 at amino terminus and human urodilatin at carboxy terminus (protein)
chain: DKTHTCPPCPAPEAEGAPSVFLFPPKPKDTLMISRTPEVTCVVVDVSHEDPEVKFNWYVDGVEVHNAKTKPREEQYNSTYRVVSVLTVLHQDWLNGKEYKCKVSNKALPAPIEKTISKAKGQPREPQVYTLPPSRQELTKNQVSLTCLVKGFYPSDIAVEWESNGQPENNYKTTPPVLDSDGSFFLYSKLTVDKSRWQQGNVFSCSVMHEALHNHYTQKSLSLSPGKTAPRSLRRSSCFGGRMDRIGAQSGLGCNSFRY
